From paper PMC7545097, “Mapping the native interaction surfaces of PREP1 with PBX1 by cross-linking mass-spectrometry and mutagenesis” (Scientific Reports, 2020)
Read-outs that look alike come from different tables or passages of the source.

Key:
Assay in all cases: time-resolved fluorescence immunoassay (TR-FIA); plate coated with monoclonal anti-PBX1; PBX1 pre-incubated with PREP1 or MEIS1 for 1 h on ice, 10 µg/mL in 1% BSA PBS, 1 h at room temperature on the plate; detected with anti-PREP1 or biotinylated anti-MEIS1/2 and Eu^3+ conjugates; normalised to the wild-type protein taken as 1
[1] = target: T1, PBX1_(1-430), wild-type recombinant (human, UniProt P40424 1-430)
T1 construct: also called wild-type PBX1; purified recombinant human PBX1; source: E. coli, purified
T1 sequence (looked up): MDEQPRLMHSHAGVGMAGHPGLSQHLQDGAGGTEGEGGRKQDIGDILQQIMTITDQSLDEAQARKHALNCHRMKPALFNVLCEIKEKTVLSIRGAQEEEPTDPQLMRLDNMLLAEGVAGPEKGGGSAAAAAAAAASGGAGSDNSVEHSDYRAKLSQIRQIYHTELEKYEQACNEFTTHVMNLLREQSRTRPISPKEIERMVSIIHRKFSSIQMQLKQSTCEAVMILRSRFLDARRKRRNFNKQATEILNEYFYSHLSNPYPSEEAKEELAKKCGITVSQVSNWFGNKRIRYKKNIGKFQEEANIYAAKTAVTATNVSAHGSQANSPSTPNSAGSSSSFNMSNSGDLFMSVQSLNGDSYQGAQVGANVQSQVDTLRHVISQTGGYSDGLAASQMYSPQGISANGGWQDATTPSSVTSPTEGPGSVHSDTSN

PBX1Δ43-55 = target: T2, PBX1Δ43-55 (human, UniProt P40424 1-430, Δ43-55); conditions: both partners purified
T2 construct: PBX1, residues 1-430, with an internal deletion; source: E. coli, purified
T2 sequence (looked up): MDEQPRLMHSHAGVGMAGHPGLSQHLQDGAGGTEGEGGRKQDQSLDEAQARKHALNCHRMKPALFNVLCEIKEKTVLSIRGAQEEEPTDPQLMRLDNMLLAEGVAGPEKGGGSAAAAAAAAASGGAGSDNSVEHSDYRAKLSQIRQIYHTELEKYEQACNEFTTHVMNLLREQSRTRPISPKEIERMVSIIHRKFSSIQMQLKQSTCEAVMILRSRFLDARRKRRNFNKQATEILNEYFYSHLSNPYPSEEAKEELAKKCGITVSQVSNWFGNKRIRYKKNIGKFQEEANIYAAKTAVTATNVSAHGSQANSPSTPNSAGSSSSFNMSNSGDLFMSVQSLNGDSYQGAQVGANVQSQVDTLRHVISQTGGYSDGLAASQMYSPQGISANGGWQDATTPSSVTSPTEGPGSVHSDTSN

PBX1 Δ105-113 = target: T3, PBX1 Δ105-113 (human, UniProt P40424 1-430, Δ105-113); conditions: both partners purified
T3 construct: PBX1, residues 1-430, with an internal deletion; source: E. coli, purified
T3 sequence (looked up): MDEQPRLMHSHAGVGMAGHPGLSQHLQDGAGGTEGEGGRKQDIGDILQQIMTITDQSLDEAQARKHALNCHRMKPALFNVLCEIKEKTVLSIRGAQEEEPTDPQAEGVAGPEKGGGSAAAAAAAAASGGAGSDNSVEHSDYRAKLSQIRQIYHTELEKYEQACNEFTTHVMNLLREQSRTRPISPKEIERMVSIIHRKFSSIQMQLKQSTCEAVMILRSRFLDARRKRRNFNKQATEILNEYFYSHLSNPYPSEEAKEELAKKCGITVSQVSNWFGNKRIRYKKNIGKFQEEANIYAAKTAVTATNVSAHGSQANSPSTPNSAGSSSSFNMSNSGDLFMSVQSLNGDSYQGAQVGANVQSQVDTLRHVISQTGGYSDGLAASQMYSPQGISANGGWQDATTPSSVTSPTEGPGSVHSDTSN

PBX1 Δ77-84 = target: T4, PBX1 Δ77-84 (human, UniProt P40424 1-430, Δ77−84); conditions: both partners purified
T4 construct: PBX1, residues 1-430, with an internal deletion; source: E. coli, purified
T4 sequence (looked up): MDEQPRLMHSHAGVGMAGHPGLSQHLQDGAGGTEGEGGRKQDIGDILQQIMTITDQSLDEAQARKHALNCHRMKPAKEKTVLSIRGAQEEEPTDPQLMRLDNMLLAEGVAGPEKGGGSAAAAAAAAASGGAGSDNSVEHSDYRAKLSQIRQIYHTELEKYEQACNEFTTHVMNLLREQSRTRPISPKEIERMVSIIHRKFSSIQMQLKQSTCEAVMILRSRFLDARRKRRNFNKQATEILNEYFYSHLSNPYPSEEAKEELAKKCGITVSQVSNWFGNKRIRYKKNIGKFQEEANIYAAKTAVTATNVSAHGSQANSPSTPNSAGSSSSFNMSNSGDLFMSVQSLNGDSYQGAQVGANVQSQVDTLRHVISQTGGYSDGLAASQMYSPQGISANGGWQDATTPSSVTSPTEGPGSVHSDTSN

PBX1Δ197-204 (human) = PBX1Δ197-204 (human) (UniProt P40424)
[2] = target: T5, PREP1_(1-436), wild-type recombinant (TR-FIA) (UniProt P55347 1-436); conditions: both partners purified
T5 construct: also called wild-type PREP1; PKNOX1; source: E. coli, purified
T5 sequence (looked up): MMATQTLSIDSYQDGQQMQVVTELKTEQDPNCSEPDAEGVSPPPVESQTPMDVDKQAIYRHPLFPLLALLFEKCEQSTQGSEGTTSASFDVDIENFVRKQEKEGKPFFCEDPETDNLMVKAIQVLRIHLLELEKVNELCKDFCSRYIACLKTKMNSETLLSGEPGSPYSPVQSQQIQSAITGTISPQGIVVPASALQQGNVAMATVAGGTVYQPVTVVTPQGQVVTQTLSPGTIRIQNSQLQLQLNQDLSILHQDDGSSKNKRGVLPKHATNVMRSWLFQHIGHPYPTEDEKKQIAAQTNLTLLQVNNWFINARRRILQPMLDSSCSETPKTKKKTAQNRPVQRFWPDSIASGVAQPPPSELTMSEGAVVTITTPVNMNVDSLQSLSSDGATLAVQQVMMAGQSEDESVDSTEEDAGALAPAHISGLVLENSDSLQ

A binding relative to wild type [1] of 30% was found for “PREP1 HR2m (I122A/L125A/L129A/L132A), TR-FIA (from UniProt P55347 1-436) (natural protein)” in this work.

B1: MEIS1_(1-390), wild-type recombinant (TR-FIA) (natural protein, UniProt O00470 1-390, looked up)
chain: MAQRYDDLPHYGGMDGVGIPSTMYGDPHAARSMQPVHHLNHGPPLHSHQYPHTAHTNAMAPSMGSSVNDALKRDKDAIYGHPLFPLLALIFEKCELATCTPREPGVAGGDVCSSESFNEDIAVFAKQIRAEKPLFSSNPELDNLMIQAIQVLRFHLLELEKVHELCDNFCHRYISCLKGKMPIDLVIDDREGGSKSDSEDITRSANLTDQPSWNRDHDDTASTRSGGTPGPSSGGHTSHSGDNSSEQGDGLDNSVASPSTGDDDDPDKDKKRHKKRGIFPKVATNIMRAWLFQHLTHPYPSEEQKKQLAQDTGLTILQVNNWFINARRRIVQPMIDQSNRAVSQGTPYNPDGQPMGGFVMDGQQHMGIRAPGPMSGMGMNMGMEGQWHYM
notes: MEIS1, full length, residues 1-390; also called wild-type MEIS1; source: E. coli, purified
In the case of B1, the “binding relative to wild type” value (PBX1Δ43-55) is reported as 60%, the binding result (PBX1 Δ105-113) is reported as “binds” and the “binding relative to wild type” value (PBX1 Δ77-84) is reported as 35%. It also gave a binding relative to wild type (PBX1Δ197-204 (human)) of 45%.

B2: PBX1 L112A (natural protein, human, UniProt P40424 1-430, looked up)
chain: MDEQPRLMHSHAGVGMAGHPGLSQHLQDGAGGTEGEGGRKQDIGDILQQIMTITDQSLDEAQARKHALNCHRMKPALFNVLCEIKEKTVLSIRGAQEEEPTDPQLMRLDNMALAEGVAGPEKGGGSAAAAAAAAASGGAGSDNSVEHSDYRAKLSQIRQIYHTELEKYEQACNEFTTHVMNLLREQSRTRPISPKEIERMVSIIHRKFSSIQMQLKQSTCEAVMILRSRFLDARRKRRNFNKQATEILNEYFYSHLSNPYPSEEAKEELAKKCGITVSQVSNWFGNKRIRYKKNIGKFQEEANIYAAKTAVTATNVSAHGSQANSPSTPNSAGSSSSFNMSNSGDLFMSVQSLNGDSYQGAQVGANVQSQVDTLRHVISQTGGYSDGLAASQMYSPQGISANGGWQDATTPSSVTSPTEGPGSVHSDTSN
notes: PBX1, residues 1-430; single alanine substitution; source: E. coli, purified
B2: binds [2].

B3: PBX1 V80A (natural protein, human, UniProt P40424 1-430, looked up)
chain: MDEQPRLMHSHAGVGMAGHPGLSQHLQDGAGGTEGEGGRKQDIGDILQQIMTITDQSLDEAQARKHALNCHRMKPALFNALCEIKEKTVLSIRGAQEEEPTDPQLMRLDNMLLAEGVAGPEKGGGSAAAAAAAAASGGAGSDNSVEHSDYRAKLSQIRQIYHTELEKYEQACNEFTTHVMNLLREQSRTRPISPKEIERMVSIIHRKFSSIQMQLKQSTCEAVMILRSRFLDARRKRRNFNKQATEILNEYFYSHLSNPYPSEEAKEELAKKCGITVSQVSNWFGNKRIRYKKNIGKFQEEANIYAAKTAVTATNVSAHGSQANSPSTPNSAGSSSSFNMSNSGDLFMSVQSLNGDSYQGAQVGANVQSQVDTLRHVISQTGGYSDGLAASQMYSPQGISANGGWQDATTPSSVTSPTEGPGSVHSDTSN
notes: PBX1, residues 1-430; source: E. coli, purified
B3: binds [2].

B4: PBX1 V80A/L81A (natural protein, human, UniProt P40424 1-430, looked up)
chain: MDEQPRLMHSHAGVGMAGHPGLSQHLQDGAGGTEGEGGRKQDIGDILQQIMTITDQSLDEAQARKHALNCHRMKPALFNAACEIKEKTVLSIRGAQEEEPTDPQLMRLDNMLLAEGVAGPEKGGGSAAAAAAAAASGGAGSDNSVEHSDYRAKLSQIRQIYHTELEKYEQACNEFTTHVMNLLREQSRTRPISPKEIERMVSIIHRKFSSIQMQLKQSTCEAVMILRSRFLDARRKRRNFNKQATEILNEYFYSHLSNPYPSEEAKEELAKKCGITVSQVSNWFGNKRIRYKKNIGKFQEEANIYAAKTAVTATNVSAHGSQANSPSTPNSAGSSSSFNMSNSGDLFMSVQSLNGDSYQGAQVGANVQSQVDTLRHVISQTGGYSDGLAASQMYSPQGISANGGWQDATTPSSVTSPTEGPGSVHSDTSN
notes: as for B3
B4: binds [2].

B5: PREP1 L132A (natural protein, UniProt P55347 1-436, looked up)
chain: MMATQTLSIDSYQDGQQMQVVTELKTEQDPNCSEPDAEGVSPPPVESQTPMDVDKQAIYRHPLFPLLALLFEKCEQSTQGSEGTTSASFDVDIENFVRKQEKEGKPFFCEDPETDNLMVKAIQVLRIHLLEAEKVNELCKDFCSRYIACLKTKMNSETLLSGEPGSPYSPVQSQQIQSAITGTISPQGIVVPASALQQGNVAMATVAGGTVYQPVTVVTPQGQVVTQTLSPGTIRIQNSQLQLQLNQDLSILHQDDGSSKNKRGVLPKHATNVMRSWLFQHIGHPYPTEDEKKQIAAQTNLTLLQVNNWFINARRRILQPMLDSSCSETPKTKKKTAQNRPVQRFWPDSIASGVAQPPPSELTMSEGAVVTITTPVNMNVDSLQSLSSDGATLAVQQVMMAGQSEDESVDSTEEDAGALAPAHISGLVLENSDSLQ
notes: PREP1 (PKNOX1), residues 1-436
With B5 the “binding relative to wild type” value ([1]; both partners purified) was 40%.
